# Experimental data as given in US20160208018A1 (JUNO THERAPEUTICS, published 2016).
# B1: CAR containing the rabbit anti-ROR1 (R12) scFv (VH-VL) (other)
# chain: QEQLVESGGRLVTPGGSLTLSCKASGFDFSAYYMSWVRQAPGKGLEWIATIYPSSGKTYYATWVNGRFTISSDNAQNTVDLQMNSLTAADRATYFCARDSYADDGALFNIWGPGTLVTISSGGGGSGGGGSGGGGSELVLTQSPSVSAALGSPAKITCTLSSAHKTDTIDWYQQLQGEAPRYLMQVQSDGSYTKRPGVPDRFSGSSSGADRYLIIPSVQADDEADYYCGADYIGGYVFGGGTQLTVTG
# notes: Control chimeric antigen receptor expressed on primary human CD8+ T cells; tEGFR marker is split off by T2A; also called R12 scFv CAR; not shown: Ig-derived hinge only spacer, human CD28-derived transmembrane domain, human 4-1BB-derived intracellular signaling domai
# B2: Clone 83 scFv (scFv)
# scFv: QVQLVQSGAEVKKPGASVKVSCKASGYTFTSYYMHWVRQAPGQGLEWMGIINPSGGSTSYAQKFQGRVTMTRDTSTSTVYMELSSLRSEDTAVYYCARDSSYDAFDIWGQGTMVTVSSGGGGSGGGGSGGGGSAIQLTQSPSTLSASVGDRVTITCQASQDISNYLNWYQQKPGKAPKLLINDASYLETGVPSRFSGSGSGTDFTLTISSLQPEDIATYYCQQYESLPYTFGQGTKLEIK
# Tests used:
# Mouse ROR1 = target: T1, Mouse ROR1 (mouse, UniProt Q9Z139 30-937); assay: inferred from IFN-gamma release of CAR-expressing CD8+ T cells co-cultured with K562/mouse ROR1 cells
# T1 construct: also called mROR1; K562/mouse ROR1
# Experimental: Cytokine release was assessed following incubation of the CAR-expressing cells with either K562/human ROR1 (hROR1) or K562/mouse ROR1 (mROR1) antigen-expressing cells. Transduced CD8+ T cells were co-cultured with antigen-expressing cells at a single effector to target (E:T). The co-cultured cells were incubated for about 24 hours, and then supernatants were collected for measurement of IFN-γ using a cytokine immunoassay.
# [1] = target: T2, Human ROR1 (receptor tyrosine kinase-like orphan receptor 1) (human, UniProt Q01973 30-937); assay: flow cytometry competition, competitor R12 scFv on ROR1-expressing cells, mean (n = 3)
# T2 construct: also called hROR1; K562/ROR1
# Experimental: Assays also were performed to assess competition of the clones with the reference antibody (R12 scFv), for binding to ROR1-expressing cells. VH clones were titrated against 2 nM Myc-R12 on ROR1/K562 cells and competition assessed with an anti-Myc-Alexa647 secondary antibody, and the half maximal inhibitory concentration (IC₅₀) determined for respective clones.
# (§1) Assays also were performed to assess competition (measured as half maximal inhibitory concentration (IC₅₀)) of the clones with the R12 scFv reference antibody for binding to ROR1-expressing cells, as described in Example 1. Percent (%) max ROR1 and % max competition, as compared to the R12 scFv reference antibody, were determined as described in Example 1.
# [2] = target: T2, Human ROR1 (receptor tyrosine …); assay: competition with R12 scFv on ROR1-expressing cells; predicted plateau relative to R12 scFv = 100%
# Experimental: (§2) Additionally, percent (%) maximum (max) binding to ROR1-expressing cells and % max competition with the reference antibody (R12 scFv) were calculated. Percent max binding and competition values were calculated based on predicted plateaus (measured by Prism® using four parameter non-linear regression), relative to values for R12 scFv binding and inhibition, respectively, assigned as 100% in each study.
# as §1
# [3] = target: T2, Human ROR1 (receptor tyrosine …); assay: flow cytometry on ROR1-expressing K562 and CHOK1 cells, mean (n = 2)
# [4] = target: T2, Human ROR1 (receptor tyrosine …); assay: flow cytometry on ROR1-expressing cells; predicted plateau relative to R12 scFv = 100%
# Experimental: as §2, §1
# T2 sequence (Q01973 30-937): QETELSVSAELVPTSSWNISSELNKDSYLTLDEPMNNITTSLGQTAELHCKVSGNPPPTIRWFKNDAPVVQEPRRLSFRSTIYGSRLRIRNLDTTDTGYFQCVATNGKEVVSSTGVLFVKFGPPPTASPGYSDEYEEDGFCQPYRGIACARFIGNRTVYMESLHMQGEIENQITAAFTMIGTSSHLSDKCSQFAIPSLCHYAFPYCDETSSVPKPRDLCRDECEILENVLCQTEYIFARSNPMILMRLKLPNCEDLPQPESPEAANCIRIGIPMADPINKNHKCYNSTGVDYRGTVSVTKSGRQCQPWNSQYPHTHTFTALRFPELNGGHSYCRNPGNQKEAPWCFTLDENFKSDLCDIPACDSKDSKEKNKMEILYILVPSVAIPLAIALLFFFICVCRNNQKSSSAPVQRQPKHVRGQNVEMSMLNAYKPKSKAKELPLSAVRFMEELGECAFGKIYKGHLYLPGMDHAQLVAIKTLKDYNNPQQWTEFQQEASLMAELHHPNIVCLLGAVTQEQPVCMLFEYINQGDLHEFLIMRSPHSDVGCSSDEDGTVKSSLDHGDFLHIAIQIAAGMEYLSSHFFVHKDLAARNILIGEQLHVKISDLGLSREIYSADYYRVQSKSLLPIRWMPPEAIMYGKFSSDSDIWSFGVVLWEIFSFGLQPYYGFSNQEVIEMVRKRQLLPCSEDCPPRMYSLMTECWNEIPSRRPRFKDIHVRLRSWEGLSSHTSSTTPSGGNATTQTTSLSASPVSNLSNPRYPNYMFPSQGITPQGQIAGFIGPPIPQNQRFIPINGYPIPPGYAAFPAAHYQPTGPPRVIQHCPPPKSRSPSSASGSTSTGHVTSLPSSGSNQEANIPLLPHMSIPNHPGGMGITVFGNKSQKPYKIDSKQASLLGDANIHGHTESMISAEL
# T1 sequence (Q9Z139 30-937): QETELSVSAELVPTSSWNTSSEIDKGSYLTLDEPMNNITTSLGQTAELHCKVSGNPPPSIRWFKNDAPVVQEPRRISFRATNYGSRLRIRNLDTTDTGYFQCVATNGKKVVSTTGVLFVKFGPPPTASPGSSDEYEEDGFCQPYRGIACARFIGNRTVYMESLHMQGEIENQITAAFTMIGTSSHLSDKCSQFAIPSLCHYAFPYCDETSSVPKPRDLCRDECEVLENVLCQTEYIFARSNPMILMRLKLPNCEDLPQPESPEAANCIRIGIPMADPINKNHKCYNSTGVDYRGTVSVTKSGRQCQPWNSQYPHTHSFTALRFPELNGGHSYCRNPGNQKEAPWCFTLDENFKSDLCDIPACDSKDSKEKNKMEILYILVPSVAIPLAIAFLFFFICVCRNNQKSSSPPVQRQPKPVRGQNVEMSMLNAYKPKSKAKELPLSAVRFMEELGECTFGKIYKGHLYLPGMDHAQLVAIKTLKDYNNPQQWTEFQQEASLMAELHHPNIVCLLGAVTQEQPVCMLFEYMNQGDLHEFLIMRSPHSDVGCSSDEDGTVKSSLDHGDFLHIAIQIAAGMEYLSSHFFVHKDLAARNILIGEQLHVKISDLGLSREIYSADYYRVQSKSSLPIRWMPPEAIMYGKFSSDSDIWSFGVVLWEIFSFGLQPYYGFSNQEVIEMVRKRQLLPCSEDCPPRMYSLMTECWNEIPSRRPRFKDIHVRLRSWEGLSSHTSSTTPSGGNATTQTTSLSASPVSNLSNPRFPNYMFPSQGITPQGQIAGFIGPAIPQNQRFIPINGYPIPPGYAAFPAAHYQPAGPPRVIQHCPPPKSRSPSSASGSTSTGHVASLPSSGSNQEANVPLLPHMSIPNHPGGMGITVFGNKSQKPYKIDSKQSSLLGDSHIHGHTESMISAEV
Binder,binding result (Mouse ROR1),IC50 [1],% Max Competition [2],EC50 [3],% Max Binding [4]
B1,no binding,–,–,–,–
B2,–,11.1 nM,103%,2.5 nM,70%
